Source: article PMC2118261

Legend:
[1] = target: mouse CD1d loaded with α-galactosylceramide, biotinylated (for SPR) (mouse) (UniProt P11609); assay: SPR
[2] = target: human CD1d loaded with α-galactosylceramide, biotinylated (human) (UniProt P15813); assay: SPR
Sequence of UniProt P15813 (P15813 20-335): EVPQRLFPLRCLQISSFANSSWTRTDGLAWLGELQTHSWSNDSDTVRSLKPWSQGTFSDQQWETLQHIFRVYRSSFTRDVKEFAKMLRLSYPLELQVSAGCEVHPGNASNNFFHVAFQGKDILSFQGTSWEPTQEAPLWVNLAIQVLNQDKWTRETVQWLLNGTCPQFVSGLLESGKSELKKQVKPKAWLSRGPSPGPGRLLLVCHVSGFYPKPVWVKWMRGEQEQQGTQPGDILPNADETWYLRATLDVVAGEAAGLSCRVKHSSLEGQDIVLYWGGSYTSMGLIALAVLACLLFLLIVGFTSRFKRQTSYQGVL

Sequence of UniProt P11609 (P11609 22-336): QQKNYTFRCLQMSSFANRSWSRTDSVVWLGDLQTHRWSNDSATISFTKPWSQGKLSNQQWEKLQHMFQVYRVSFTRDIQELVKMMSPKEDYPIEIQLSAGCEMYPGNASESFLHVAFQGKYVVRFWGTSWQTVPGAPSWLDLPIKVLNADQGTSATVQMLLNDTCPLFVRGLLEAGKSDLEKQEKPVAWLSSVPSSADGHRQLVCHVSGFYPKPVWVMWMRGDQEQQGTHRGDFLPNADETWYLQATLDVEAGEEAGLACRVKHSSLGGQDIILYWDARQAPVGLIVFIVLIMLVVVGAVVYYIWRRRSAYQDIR

| Kd [1] [µM] | Kd [2] [µM] | fold lower affinity than NKT15 [1] [fold] | fold lower affinity than NKT15 [2] [fold] | Substance |
| --- | --- | --- | --- | --- |
| 20 | 10 |  |  | NKT15 TCR (human semi-invariant NKT cell αβ T cell receptor, soluble extracellular domains) |
|  |  | 5 to 10 | 5 to 10 | NKT15α-chain/NKT15 β-chain engrafted with the LC13 CDR3β-loop (TCR) |
